# Source: the RNAGym collection of RNA variant scans (doi:10.7554/elife.80360)
# B1: HDV Ribozyme (parent)
# chain: GGCCGGCAUGGUCCCAGCCUCCUCGCUGGCGCCGGCUGGGCAACAUUCCGAGGGGACCGUCCCCUCGGUAAUGGCGAAUGGGACCCA
# Variants of: B1
# Assay: self-cleavage, relative activity (ratio to wild type); higher = more cleavage; co-transcriptional
row,Variant,self-cleavage
1,GGCCGGCAUGGUCCCAGCCUCCUCGCUGGCGCCCGCUGGGCAACAUUCCCAGGGGACCGUCCCCUCGGUAAUGGCGAAUGGGACCCA [G34C G50C],0.288
2,GGCCGGCAUGGUCCCAGCUUCCUCGCUGGCGCCGGCUGGGCAACAUGCCGAGGGGACCGUCCCCUCGGUAAUGGCGAAUGGGACCCA [C19U U47G],0.0906
3,GGCCGUCAUGGUCCCAGCCUCAUCGCUGGCGCCGGCUGGGCAACAUUCCGAGGGGACCGUCCCCUCGGUAAUGGCGAAUGGGACCCA [G6U C22A],0.0489
4,GGCCGGCAUGGUCCCAGCCUCCUCGCUGGCGCCGGCUGGGCAACAUUCCGAGGGGACCGUCCCCUCGGUCAUGGCUAAUGGGACCCA [A70C G76U],1.05
5,GGCCGGCAUGGUCCCAGCCUCCUCGCUGGCGCCGGCUGGGCAACAUUCCGAGGGGACCGUCCCCUCCGUAAGGGCGAAUGGGACCCA [G67C U72G],0.231
6,GGCCGGCAUGGUCCCAGCCUCCUCGCUGGCGCCCGCUGGACAACAUUCCGAGGGGACCGUCCCCUCGGUAAUGGCGAAUGGGACCCA [G34C G40A],0.354
7,GGCCGGCAUGGUCCCAGCCUCAUCGCUGGCGCCGGCUGUGCAACAUUCCGAGGGGACCGUCCCCUCGGUAAUGGCGAAUGGGACCCA [C22A G39U],0.166
8,GGCCGGCAUGGUUACAGCCUCCUCGCUGGCGCCGGCUGGGCAACAUUCCGAGGGGACCGUCCCCUCGGUAAUGGCGAAUGGGACCCA [C13U C14A],0.155
9,GCCCGGCAUGGUCCCAGCCUCCUCGCUGGCGCCGGCUGGGCAACAUUCCGAGGGGACUGUCCCCUCGGUAAUGGCGAAUGGGACCCA [G2C C58U],0.0256
10,GGCCGGCAUGGUCCCAGCCUCCUCGCUGGCGCCGGCUGGGCAACAUUCCGAGGGGACCGUCCCCUCGGUAAUGGCGAAUAGUACCCA [G80A G82U],0.0511
11,GGCCGGCAUGGUCCCAGCCUCCUCGCUGGCGCCGGCUGGGCAACAUUCCGAGAGGACCGUCCCCUCGGUAAUGGCGAAAGGGACCCA [G53A U79A],0.814
12,GGCCGGCAUGGUCCCAGCCUCCUCGCUGGCACCGGCUGGGCAAUAUUCCGAGGGGACCGUCCCCUCGGUAAUGGCGAAUGGGACCCA [G31A C44U],0.0898
13,GUCCGGCAUGGUCCCAGCCUCCUCGCUGGCGCCGGCUGGGCAACAUUCCGAGGGGACCGUCCCCUCGGUAAUGGCGAAUGGGACCCG [G2U A87G],0.0468
14,GGCCGGCAUGGUCCCAGCCUCGUCGCUGGCGCCGGCUGGGCAACAUUCCGAGGGGACCGUCUCCUCGGUAAUGGCGAAUGGGACCCA [C22G C62U],0.0346
15,GGCCGGCAUGCUCCCAGCCUCCUCGCUGGCGCCGGCUGGGCAACAUUCCGAGGGGACCGUGCCCUCGGUAAUGGCGAAUGGGACCCA [G11C C61G],0.217
16,GGCCGGCAUGGUCCAAGUCUCCUCGCUGGCGCCGGCUGGGCAACAUUCCGAGGGGACCGUCCCCUCGGUAAUGGCGAAUGGGACCCA [C15A C18U],0.295
17,GGCCGGCAUGGUCCCAGCCUCCUCGCUGCCGCCGGCUGGGCAACAUUCCGUGGGGACCGUCCCCUCGGUAAUGGCGAAUGGGACCCA [G29C A51U],0.0308
18,GGCGGGCAUCGUCCCAGCCUCCUCGCUGGCGCCGGCUGGGCAACAUUCCGAGGGGACCGUCCCCUCGGUAAUGGCGAAUGGGACCCA [C4G G10C],0.237
19,GGCCGGCAUGGUCCCAGCCUCCUCGCUGGCGCCGGCUGGGCUACAUUCCGAGGGGACCGUCCCCUCGGUAAUGGCGAAUGGGACCCC [A42U A87C],0.533
20,GGCCGCCAUGGUCCCAGCCUCCUCGCUGGCGCCGGCCGGGCAACAUUCCGAGGGGACCGUCCCCUCGGUAAUGGCGAAUGGGACCCA [G6C U37C],0.923
21,GGCCGGCAUGGUCCCAGGCUCCUCGCUGGCGCCGGCUGGGCAACAUUCCGAGGGAACCGUCCCCUCGGUAAUGGCGAAUGGGACCCA [C18G G55A],0.145
22,GGCCGGCAUGGUCCCAGCCUCCUCGCUGGCGCCGGCUGGGCAACAUUACGAGGGGACCGUCCCCUCGGUUAUGGCGAAUGGGACCCA [C48A A70U],0.985

row,Variant,self-cleavage
1,GGCCGGCAUGGUCCCAGCCUCCGCGCUGGCGCCGGCUGGGCAACAUUCCGAGGGGACCGUCCCCUCGGUAAUGGAGAAUGGGACCCA [U23G C75A],0
2,GGCCGGCAUGGUCCCAGCCUCCUCGGUGGCGCCGGCUGGGCAACAUUCCGAGGGGACCGUCCCCUCGGUAAUGCCGAAUGGGACCCA [C26G G74C],0.0573
3,GGCCGGCAUGGUCCCAGCCUCCUCGCUGGCCCCGGCUGCGCAACAUUCCGAGGGGACCGUCCCCUCGGUAAUGGCGAAUGGGACCCA [G31C G39C],0.0475
4,GGCCGGCAUGGUCGCAGCCUCCUCGCUGGCGCCGGCUGGGCAACAUUCCGAGGGGACCGUCCCCUCGGUAAUGGCGAAUGGGAACCA [C14G C84A],0.519
5,GGCCGGCAUGGUCCCAGCCUCCUCGCUGGCGACGGCUGGGCAACAUUCCGAGGGGACCGUUCCCUCGGUAAUGGCGAAUGGGACCCA [C32A C61U],0.201
6,GGCCGGCAUGGUCCCAGCCUCCUCGCUGGCGCCGUCUGGGCAACAUUCCGAGGGGACCUUCCCCUCGGUAAUGGCGAAUGGGACCCA [G35U G59U],0.53
7,GGCCGGCAUGGUCCCUGCCUCCUCGCUGGCGCCGGCUGGGCAACAUUCCGAGGGGACCGUCCACUCGGUAAUGGCGAAUGGGACCCA [A16U C63A],1.08
8,GGCCGGCAUGGUCCCAGCCUCCUCGCUGGCGGCGGCUGGGCAACAUUACGAGGGGACCGUCCCCUCGGUAAUGGCGAAUGGGACCCA [C32G C48A],0.0378
9,GGCCGGAAUGGUCCCAGCCUCCUCGCUGGCGCCGGCUGGGCAACAUUCCGAGGGGACCGUCCCCUCGGUAAUCGCGAAUGGGACCCA [C7A G73C],0.106
10,GGCCGGCAUGGUCCCUGCCUCCUCGCUGGCGCCGGCUGGGCAACUUUCCGAGGGGACCGUCCCCUCGGUAAUGGCGAAUGGGACCCA [A16U A45U],0.831
11,GGCCGGCAUGGUCCCAGCCUCCUCGCUGGCGCCGGCCGGGCAACAUUCCGAGGGGACCGUCCCCUCGGUAAUGGCGAAUGGGACCCU [U37C A87U],1.14
12,GGCCGGCAUGGGCCCAGCCUCCUCGCUGGCGCCGGCUGGGCAACAUUCAGAGGGGACCGUCCCCUCGGUAAUGGCGAAUGGGACCCA [U12G C49A],0.935
13,GGCCGGCAUGGUCCCAGCCUCCUCGCUGGCGCCGGCUGGGCAACAUUCCGAGGGGACCGUCCCCUCGGUAGUGGCGAAUGGUACCCA [A71G G82U],0.312
14,GGCCGGCAUGGUCCCAGCGUCCUCGCUGGCGCCGGCUGGGCAACAUUCCGAGGGCACCGUCCCCUCGGUAAUGGCGAAUGGGACCCA [C19G G55C],0.0475
15,GGCCGGCAUGGUCCCAGCCUCCUCGCUGGCGCCGGCUGGUCAACAUUCCGAGGGGACUGUCCCCUCGGUAAUGGCGAAUGGGACCCA [G40U C58U],0.669
16,GGCAGGCAUGGUCCCAGCCUCCUCGCUGGCGCCGGCUGGGCAACAUUCCGAGGGGACCGUCCCCUCCGUAAUGGCGAAUGGGACCCA [C4A G67C],0.348
17,GGCCGGCAUGGUCCCAGCCUCCUCACUGGCGCCGGCUGGGCAACAUUCCGAGGGGACCGUCCCCUCGGUAAUGGCGAGUGGGACCCA [G25A A78G],0.0339
18,GGCCGGCAUGGUCCCAGCCUCCUCGCUGGCGCCGGCUGGGCAACAUUCCGAGGGGACAGUGCCCUCGGUAAUGGCGAAUGGGACCCA [C58A C61G],1.03
19,GGCCGGCAUGGUCCCAGCCUCCUCGAUGGCGCCGGCUGGGCAACAUUCCGAGGGGACCGUCCCCUCGGUAAUGGCGAAUCGGACCCA [C26A G80C],0.348
20,GGCCGGCAUGGUCCCAGCCUCCUCGCUGGCGCCGGCUGCGCAACAUUCCGAGGGGACCGUCCGCUCGGUAAUGGCGAAUGGGACCCA [G39C C63G],0.0437
21,GGCCGGCAUGGUCCCAGCCUCCUCGCUGGCGCCGGCUGGGCAACAUUCCGGGAGGACCGUCCCCUCGGUAAUGGCGAAUGGGACCCA [A51G G53A],0.831
22,GGCCGGCAUGGUCCCAGCCUCCUCGCUGGCUCCGGCUGGGCAACAUUCCGAGGGGACCGUCCCCUCGGUAAUGGCGAUUGGGACCCA [G31U A78U],0.0744

row,Variant,self-cleavage
1,GGCCGGCAUGGUCCCAGCCUCCUCGCUGGCGCCGGUUGGGCAACAUUCCGAGGGGACCGUCCCCUCGGUUAUGGCGAAUGGGACCCA [C36U A70U],0.702
2,GGCCGGCAUGGUCCCAGGCUCGUCGCUGGCGCCGGCUGGGCAACAUUCCGAGGGGACCGUCCCCUCGGUAAUGGCGAAUGGGACCCA [C18G C22G],0.0755
3,GGCCGGCAUGGUCCCAGCCUCCUCGCUGUCGCCGGCUGGGCAAUAUUCCGAGGGGACCGUCCCCUCGGUAAUGGCGAAUGGGACCCA [G29U C44U],0.104
4,GGCCGGCAUGGUCCCACCCUCCUCGCUGGCGCCGGCUGGGCAACAUUCCGAGGGGACCGUCUCCUCGGUAAUGGCGAAUGGGACCCA [G17C C62U],0.405
5,GGCCGGCAUGGUCCCAGCCUCCUCGCUGGCACCGGCUGGGCAACAUUCCGAGGGGACCGUCCCCUCGGUAAUGGCGCAUGGGACCCA [G31A A77C],0.199
6,GGCCGGCUUGGUCCCAGCCUCCUCGCUGGCGCCGGCUGCGCAACAUUCCGAGGGGACCGUCCCCUCGGUAAUGGCGAAUGGGACCCA [A8U G39C],0.166
7,GGCCGGCAUGGUCCCAGCCUCCUCGCUGGCGCCGGCUGGGCAACAUUCCGAGGGGUCCGUCCCCUCGGUAAUGGCGAAUUGGACCCA [A56U G80U],0.237
8,GGUCGGCAUGGUGCCAGCCUCCUCGCUGGCGCCGGCUGGGCAACAUUCCGAGGGGACCGUCCCCUCGGUAAUGGCGAAUGGGACCCA [C3U C13G],0.179
9,GGCCGGCAUGGUCCCAGCCUCCUCGCUGGCGCCGGCCGGGCAACAUUCCGAGGGGACCGUCCCCUCGGUAAUGGCGAAUGGGACCUA [U37C C86U],1.06
10,GGCCGGCAUUGUCCCAGCCUCCUCGAUGGCGCCGGCUGGGCAACAUUCCGAGGGGACCGUCCCCUCGGUAAUGGCGAAUGGGACCCA [G10U C26A],0.678
11,GGCCGGCAUGGUCCCAGCCUCCUCGCUGGCGCCCGCUGGGCAACAUUCCGAGGGGACCGUCCCCUCCGUAAUGGCGAAUGGGACCCA [G34C G67C],0.123
12,GGCCGGCAUGGUCCCAGCCUCCUCGCUGGCGCCGGCUGGGCAACAUUCCGAGGGGACCGUUCCCCCGGUAAUGGCGAAUGGGACCCA [C61U U65C],0.914
13,GGCCGGCAUGGUCCCAGCCUCCUCGCUGGCGCCGGCUGGGCAACAUUCAGAGGGGACCGUCCCCUCCGUAAUGGCGAAUGGGACCCA [C49A G67C],1.04
14,GGCCGGCAUGGUCCCGGCCCCCUCGCUGGCGCCGGCUGGGCAACAUUCCGAGGGGACCGUCCCCUCGGUAAUGGCGAAUGGGACCCA [A16G U20C],0.128
15,GGCCGGCAUGGGCCCUGCCUCCUCGCUGGCGCCGGCUGGGCAACAUUCCGAGGGGACCGUCCCCUCGGUAAUGGCGAAUGGGACCCA [U12G A16U],0.795
16,GGCCGGCAUGGUCCCAGCCUCCUUGCUGGCGCCGGCUGGGCAACAUUCCGAGGGGACCGUCCCCUCGGUAAUGGCGAAUGGGACCCG [C24U A87G],0.55
17,GGCCGGUAUGGUCCCAGCCUCCUCGCUGGCGCCGGCUGGGCAACGUUCCGAGGGGACCGUCCCCUCGGUAAUGGCGAAUGGGACCCA [C7U A45G],0.72
18,GGCCGGCAUGGUACCAGCCUCCUCGCUGGCGCCGGCUGGGGAACAUUCCGAGGGGACCGUCCCCUCGGUAAUGGCGAAUGGGACCCA [C13A C41G],0.0504
19,GGCCGGCAUGGUCCCAGCCUCCUCGCUGGCGCCGGCUGGGCAACAUUCCGUGGGGACCGUCCCCUCGGUGAUGGCGAAUGGGACCCA [A51U A70G],0.972
20,GGCCGGCAUGGUCCCAGCCUUCUCGCUGGCGCCGGCUGGGCAACAUACCGAGGGGACCGUCCCCUCGGUAAUGGCGAAUGGGACCCA [C21U U47A],0.363
